{
  "source": "paper PMC4642536",
  "about": "“Structural analysis of fungus-derived FAD glucose dehydrogenase” (Scientific Reports, 2015)",
  "biological_target": "the molecule itself",
  "test": "SEC; size exclusion chromatography of GOx as comparison to AfGDH; elution volume corresponding to the dimer; conditions not shown (Supplementary Figure S4)",
  "data": [
    {"protein": "glucose oxidase (enzyme, UniProt P13006 17-605, looked up, glucose oxidase (GOx) used as the comparison in size exclusion chromatography; probably the glycosylated enzyme; also called GOx) LPHYIRSNGIEASLLTDPKDVSGRTVDYIIAGGGLTGLTTAARLTENPNISVLVIESGSYESDRGPIIEDLNAYGDIFGSSVDHAYETVELATNNQTALIRSGNGLGGSTLVNGGTWTRPHKAQVDSWETVFGNEGWNWDNVAAYSLQAERARAPNAKQIAAGHYFNASCHGVNGTVHAGPRDTGDDYSPIVKALMSAVEDRGVPTKKDFGCGDPHGVSMFPNTLHEDQVRSDAAREWLLPNYQRPNLQVLTGQYVGKVLLSQNGTTPRAVGVEFGTHKGNTHNVYAKHEVLLAAGSAVSPTILEYSGIGMKSILEPLGIDTVVDLPVGLNLQDQTTATVRSRITSAGAGQGQAAWFATFNETFGDYSEKAHELLNTKLEQWAEEAVARGGFHNTTALLIQYENYRDWIVNHNVAYSELFLDTAGVASFDVWDLLPFTRGYVHILDKDPYLHHFAYDPQYFLNELDLLGQAAATQLARNISNSGAMQTYFAGETIPGDNLAYDADLSAWTEYIPYHFRPNYHGVGTCSMMPKEMGGVVDNAARVYGVQGLRVIDGSIPPTQMSSHVMTVFYAMALKISDAILEDYASMQ", "values": [
      {"measurement": "stoichiometry N", "result": 2}
    ]}
  ]
}
